Reference: patent US20150037868

Assays:
[1] = system: Pgi with HRV 3C recognition sequence inserted after amino acid 531
[2] = system: Pta variant with HRV protease cleavage motif inserted after amino acid 387
[3] = system: Pgi with HRV 3C recognition sequence inserted after amino acid 110
[4] = system: Pgi with HRV 3C recognition sequence inserted after amino acid 108
[5] = system: Pta variant with HRV protease cleavage motif inserted after amino acid 382
[6] = system: Pgi with HRV 3C recognition sequence inserted after amino acid 109
[7] = system: Pgi with HRV 3C recognition sequence inserted after amino acid 527
[8] = system: wild-type Pgi protein (phosphoglucose isomerase of Escherichia coli)
[9] = system: Pgi with HRV 3C recognition sequence inserted after amino acid 530
[10] = system: Pgi with HRV 3C recognition sequence inserted after amino acid 528
[11] = system: Pta variant with HRV protease cleavage motif inserted after amino acid 409
[12] = system: Pgi with HRV 3C recognition sequence inserted after amino acid 138
[13] = system: Pta variant with HRV protease cleavage motif inserted after amino acid 381
[14] = system: Pgi with HRV 3C recognition sequence inserted after amino acid 529
[15] = system: Pgi with HRV 3C recognition sequence inserted after amino acid 532
[16] = system: Pgi-HRV-I526 (Pgi with HRV 3C recognition sequence inserted after amino acid 526)
[17] = system: Pgi with HRV 3C recognition sequence inserted after amino acid 410

Substance: exogenous HRV 3C protease (ACCELAGEN H0101S)
- Pgi Activity/Activity wild type, +protease; -protease value 0.56 [1]: 0.28
- Pgi activity in clarified lysate, +protease (10 units exogenous HRV 3C protease, 4 h, 37 C); -protease value 1.29 (µmol/min/mg total protein) [1]: 0.67
- in vitro Pta activity with or without exogenously supplied HRV protease, 30 minutes at 37 C [2]: In all cases, Pta activity was dramatically reduced upon incubation with HRV protease.
- Pgi Activity/Activity wild type, +protease; -protease value 0.92 [3]: 0.84
- Pgi activity in clarified lysate, +protease (10 units exogenous HRV 3C protease, 4 h, 37 C); -protease value 2.13 (µmol/min/mg total protein) [3]: 1.99
- Pgi Activity/Activity wild type, +protease; -protease value 0.94 [4]: 0.86
- Pgi activity in clarified lysate, +protease (10 units exogenous HRV 3C protease, 4 h, 37 C); -protease value 2.16 (µmol/min/mg total protein) [4]: 2.03
- in vitro Pta activity with or without exogenously supplied HRV protease, 30 minutes at 37 C [5]: In all cases, Pta activity was dramatically reduced upon incubation with HRV protease.
- Pgi Activity/Activity wild type, +protease; -protease value 1.10 [6]: 0.78
- Pgi activity in clarified lysate, +protease (10 units exogenous HRV 3C protease, 4 h, 37 C); -protease value 2.54 (µmol/min/mg total protein) [6]: 1.86
- Pgi Activity/Activity wild type, +protease; -protease value 0.84 [7]: 0.6
- Pgi activity in clarified lysate, +protease (10 units exogenous HRV 3C protease, 4 h, 37 C); -protease value 1.93 (µmol/min/mg total protein) [7]: 1.42
- Pgi Activity/Activity wild type, +protease; -protease value 1 [8]: 1
- Pgi activity in clarified lysate, +protease (10 units exogenous HRV 3C protease, 4 h, 37 C); -protease value 2.31 (µmol/min/mg total protein) [8]: 2.37
- Pgi Activity/Activity wild type, +protease; -protease value 0.33 [9]: 0.12
- Pgi activity in clarified lysate, +protease (10 units exogenous HRV 3C protease, 4 h, 37 C); -protease value 0.77 (µmol/min/mg total protein) [9]: 0.29
- Pgi Activity/Activity wild type, +protease; -protease value 0.45 [10]: 0.26
- Pgi activity in clarified lysate, +protease (10 units exogenous HRV 3C protease, 4 h, 37 C); -protease value 1.04 (µmol/min/mg total protein) [10]: 0.63
- in vitro Pta activity with or without exogenously supplied HRV protease, 30 minutes at 37 C [11]: In all cases, Pta activity was dramatically reduced upon incubation with HRV protease.
- Pgi Activity/Activity wild type, +protease; -protease value 0.27 [12]: 0.16
- Pgi activity in clarified lysate, +protease (10 units exogenous HRV 3C protease, 4 h, 37 C); -protease value 0.62 (µmol/min/mg total protein) [12]: 0.37
- in vitro Pta activity with or without exogenously supplied HRV protease, 30 minutes at 37 C [13]: In all cases, Pta activity was dramatically reduced upon incubation with HRV protease.
- Pgi Activity/Activity wild type, +protease; -protease value 0.64 [14]: 0.5
- Pgi activity in clarified lysate, +protease (10 units exogenous HRV 3C protease, 4 h, 37 C); -protease value 1.48 (µmol/min/mg total protein) [14]: 1.19
- Pgi Activity/Activity wild type, +protease; -protease value 0.50 [15]: 0.22
- Pgi activity in clarified lysate, +protease (10 units exogenous HRV 3C protease, 4 h, 37 C); -protease value 1.15 (µmol/min/mg total protein) [15]: 0.52
- Pgi Activity/Activity wild type, +protease; -protease value 0.83 [16]: 0.19
- Pgi activity in clarified lysate, +protease (10 units exogenous HRV 3C protease, 4 h, 37 C); -protease value 1.92 (µmol/min/mg total protein) [16]: 0.44
- Pgi Activity/Activity wild type, +protease; -protease value 0.50 [17]: 0.41
- Pgi activity in clarified lysate, +protease (10 units exogenous HRV 3C protease, 4 h, 37 C); -protease value 1.16 (µmol/min/mg total protein) [17]: 0.96
